How the values were obtained:
[1] = biological target: PSA65-74 peptide presented by H-2Db (PSA65-74 H-2Db tetramer; EL4 cells pulsed with H-2Db peptide) (human) (UniProt P07288); assay: PSA tetramer staining of splenocytes on day 6 after the boost, flow cytometry
[2] = biological target: PSA65-74 peptide presented by H-2Db (PSA65-74 H-2Db tetramer; EL4 cells pulsed with H-2Db peptide) (human) (UniProt P07288)

| percent PSA tetramer+CD8+CD62Llow cells [1] [%] | percentage of CD8+CD62Llow IFN-γ secreting cells (intracellular cytokine staining after 5 h stimulation with PSA peptide) [2] [fold] | Substance |
| --- | --- | --- |
| 23 | – | splenocytes (PSA-specific CD8+ T cells / CTLs) of C57BL/6 mice immunized with LmddA-LLO-PSA |
| – | 200 | splenocytes (PSA-specific CD8+ T cells / CTLs) of C57BL/6 mice immunized with LmddA-LLO-PSA (cells without a defined receptor) |
